# Measured values as given in US10131920B2, “Nucleic acid molecules” (MEDIMMUNE LIMITED, priority 2013, dated 2018).
# Substitutions are numbered along the chain they refer to. Numbers in names are those of the source.
# B1: B tRNA: tRNApyl Methanosarcina mazei with A52C mutation (B-box) (nucleic acid)
# DNA: GGAAACCTGATCATGTAGATCGAATGGACTCTAAATCCGTTCAGCCGGGTTCGATTCCCGGGGTTTCCG
# modifications: expressed or natural sequence
# B2: WT tRNA: wild type tRNApyl gene of Methanosarcina mazei without extragenic promoter (nucleic acid, listed as Methanosarcina mazei)
# DNA: B1 DNA with C52A
# modifications: expressed or natural sequence
# notes: wild type tRNApyl gene of Methanosarcina mazei without extragenic promoter
# B3: 3×Glu: three tandem repeats of the murine tRNA glu and pyltRNA bicistronic pair (nucleic acid)
# DNA: GCCGTGACCTCGGGCCGACGCTCCCTGGTGGTCTAGTGGTTAGGATTCGGCGCTCTCACCGCCGCGGCCCGGGTTCGATTCTCGGTCAGGGAAGCCTCTCCCCCAAACCTCGGAAACCTGATCATGTAGATCGAATGGACTCTAAATCCGTTCAGCCGGGTTAGATTCCCGGGGTTTCCGCTTCTTCCTCTTTTCTGCACCCTCACTTCAGCTGAGCCGTGACCTCGGGCCGACGCTCCCTGGTGGTCTAGTGGTTAGGATTCGGCGCTCTCACCGCCGCGGCCCGGGTTCGATTCTCGGTCAGGGAAGCCTCTCCCCCAAACCTCGGAAACCTGATCATGTAGATCGAATGGACTCTAAATCCGTTCAGCCGGGTTAGATTCCCGGGGTTTCCGCTTCTTCCTCTTTTCTGCACCCCAATATTGCCGTGACCTCGGGCCGACGCTCCCTGGTGGTCTAGTGGTTAGGATTCGGCGCTCTCACCGCCGCGGCCCGGGTTCGATTCTCGGTCAGGGAAGCCTCTCCCCCAAACCTCGGAAACCTGATCATGTAGATCGAATGGACTCTAAATCCGTTCAGCCGGGTTAGATTCCCGGGGTTTCCGTAGCGTCCTTTTTGGAAAGACAAGTGGGTGGCGAATTCGATATC
# modifications: Synthetic sequence 3x tRNAglu-pyl DNA construct including 3 repeats of the bicistronic construct tRNAglu-tRNApyl
# notes: three tandem repeats of the murine tRNA glu and pyltRNA bicistronic pair
# B4: 2×Asp: two tandem repeats of the murine tRNA asp-pyl tRNA bicistronic pair (nucleic acid)
# DNA: TCCTCGTTAGTATAGTGGTGAGTATCCCCGCCTGTCACCCGCGAGACCGGCGTTCCATTCCCCGACGGGGAGACGTAGCCCCACCTCGGAAACCTGATCATGTAGATCGAATGGACTCTAAATCCGTTCAGCCGGGTTAGATTCCCGGGGTTTCCGTAGCGTCCTTTTTGGAAAGACAAGGTGCGTCGTAGTCGGCGTTGTCCTCGTTAGTATAGTGGTGAGTATCCCCGCCTGTCACCCGCGAGACCGGCGTTCCATTCCCCGACGGGGAGACGTAGCCCCACCTCGGAAACCTGATCATGTAGATCGAATGGACTCTAAATCCGTTCAGCCGGGTTAGATTCCCGGGGTTTCCGTAGCGTCCTTTTT
# modifications: Synthetic sequence 2x tRNAasp-pyl DNA construct including 2 repeats of the bicistronic construct tRNAasp-pyl
# notes: two tandem repeats of the murine tRNA asp-pyl tRNA bicistronic pair
# B5: H1-tRNA: WT tRNApyl under control of the H1 promoter, positive control (nucleic acid)
# DNA: AATATTTGCATGTCGCTATGTGTTCTGGGAAATCACCATAAACGTGAAATCCCTATCAGTGATAGAGACTTATAAGTTCCCTATCAGTGATAGAGACACCAGGAAACCTGATCATGTAGATCGAATGGACTCTAAATCCGTTCAGCCGGGTTAGATTCCCGGGGTTTCCGGACAAGTGCGGTTTTTTT
# modifications: Synthetic sequence H1 tRNA-WT construct
# B6: H1-B tRNA: tRNA-B (A52C) under control of the H1 promoter (nucleic acid)
# DNA: B5 DNA with T152C
# modifications: Synthetic sequence H1 tRNA-B construct
# notes: tRNA-B (A52C) under control of the H1 promoter
# Tests used:
# [1] = test system: GFPY40 reporter in 3H7 cells; experiment: Amber suppression-dependent GFP expression (GFPY40 reporter), transient transfection of 3H7 cells, flow cytometry; format: cell-based; conditions: three days; for GFP MFI in the absence of nnAA, FIG. 6: no nnAA; for GFP MFI, FIG. 11: 1 ug GFPY40 and 1 ug tRNA expression vector, lys-azide
# Protocol: To assess the function of the tRNA variants, an in vitro assay was established where cells are transiently transfected with a tRNA construct and a reporter construct encoding GFP containing an amber codon interrupting its reading frame (GFPY40). HEK293 cells stably expressing pylRS were transiently transfected with various tRNA constructs (1 ug) and the GFPY40 reporter (1 ug). In the absence of elements that support amber suppression, a truncated GFP protein is generated and the cell is not fluorescent. However, the introduction of a functional tRNA and the presence of a nnAA that supports amber suppression allows for the production of full length GFP resulting in fluorescent cells. The level of GFP expression reflects the efficiency of amber suppression and is quantified by flow cytometry. tRNA genes encoding wild type tRNApyl (WT tRNA), or containing mutations in the B-box (B tRNA—SEQ ID No 9), in both the A and B box (A2B tRNA—SEQ ID No 10), or in the A box (A1 tRNA-SEQ ID No 7; or A2 tRNA SEQ ID No 11), all under control of the H1 promoter were generated by site directed mutagenesis and assayed. The H1 promoter ensured that the variants were expressed and allowed us to examine the functional effects of the mutations introduced into the tRNA genes. In addition a sample transfected with GFPY40 alone was generated to establish background GFP levels. The transfected cells were grown in presence of the aminoacid analogue lys azide (2 mM) and incubated for 18 hours. GFP fluorescence was then assayed by flow cytometry and mean fluorescence intensity determined for each sample. Data were analysed with FCS Express and the mean fluorescence intensity of each sample determined using markers that constrain the data set to cells showing fluorescence above negative controls. […] The constructs thus are functional and may contain the necessary genetic sequence to enable the expression of the tRNA also in the absence of an upstream promoter element such as the H1 promoter.
# Having established that the B mutation introduced into the pyltRNA sequence enabled expression of the tRNA that supported amber suppression we then asked whether this mutation affected the orthogonality of the tRNA and led to the incorporation of natural amino acids. To do this 3H7 cells were transiently transfected with expression constructs encoding WT-tRNA, B-tRNA, H1-tRNA and H1-B tRNA along with the GFPY40 reporter. Transfected cells were grown in the presence of 2 mM lys azide or absence of nnAA as indicated (FIG. 6), and GFP expression assessed by flow cytometry after three days. In addition, a sample transfected only with GFPY40 was examined to determine background amber suppression levels in the absence of tRNA. […] A comparison of GFP expression between the WT tRNA (MFI 33,781) and tRNA B (232,505) lacking extragenic promoter elements confirms that the B mutation generates a functional intragenic promoter. Indeed, the B tRNA construct enabled a seven-fold increase in the level of amber suppression dependent expression of GFP over WT tRNA.
# We also tested the utility of a bicistronic tRNA expression construct for its ability to express tRNApyl. Here, the murine tRNA Glu and tRNA Asp were utilized. In each case, multiple repeats of the constructs were generated to increase activity (3×Glu-pyl and 2×Asp-pyl). Here, 3H7 cells were transiently transfected with 1 ug of the reporter construct GFPY40 and 1 ug of the indicated tRNA expression vectors (FIG. 11) and incubated with lys-azide for three days. Data were collected by flow cytometry and mean fluorescence intensities for each sample were plotted. […] The construct consisting of the 7SL WT tRNA (MFI=312) was included as a metric for low efficiency. In addition cell lines containing only the GFPY40 reporter were used as negative controls (MFI=0).
# [2] = test system: GFPY40 reporter (GFP containing an amber codon) in HEK293 cells stably expressing pylRS; experiment: Amber suppression-dependent GFP expression (GFPY40 reporter), transient transfection, flow cytometry; format: cell-based; conditions: for GFP MFI, FIG. 9: 1 ug GFPY40 reporter and 1 ug tRNA expression plasmid; for GFP MFI, single copy tRNA, FIG. 7 / GFP MFI, tandem copies of tRNA, FIG. 7: cells expressing WTpylRS, after two days; for GFP MFI, tandem copies of tRNA, FIG. 7: single vector containing two copies in tandem; for GFP MFI, FIG. 10: cells stably expressing WTpylRS, lys azide; for GFP MFI, FIG. 8: 1 ug PCR product of each construct, lys azide nnAA
# Protocol: To assess the function of the tRNA variants, an in vitro assay was established where cells are transiently transfected with a tRNA construct and a reporter construct encoding GFP containing an amber codon interrupting its reading frame (GFPY40). HEK293 cells stably expressing pylRS were transiently transfected with various tRNA constructs (1 ug) and the GFPY40 reporter (1 ug). In the absence of elements that support amber suppression, a truncated GFP protein is generated and the cell is not fluorescent. However, the introduction of a functional tRNA and the presence of a nnAA that supports amber suppression allows for the production of full length GFP resulting in fluorescent cells. The level of GFP expression reflects the efficiency of amber suppression and is quantified by flow cytometry. tRNA genes encoding wild type tRNApyl (WT tRNA), or containing mutations in the B-box (B tRNA—SEQ ID No 9), in both the A and B box (A2B tRNA—SEQ ID No 10), or in the A box (A1 tRNA-SEQ ID No 7; or A2 tRNA SEQ ID No 11), all under control of the H1 promoter were generated by site directed mutagenesis and assayed. The H1 promoter ensured that the variants were expressed and allowed us to examine the functional effects of the mutations introduced into the tRNA genes. In addition a sample transfected with GFPY40 alone was generated to establish background GFP levels. The transfected cells were grown in presence of the aminoacid analogue lys azide (2 mM) and incubated for 18 hours. GFP fluorescence was then assayed by flow cytometry and mean fluorescence intensity determined for each sample. Data were analysed with FCS Express and the mean fluorescence intensity of each sample determined using markers that constrain the data set to cells showing fluorescence above negative controls.
# To begin to assess whether the tRNA mutations can support expression of the tRNA we assayed tRNA constructs encoding the wild type tRNA in the absence of the H1 promoter. Constructs encoding wild type tRNApyl (WT tRNA) or containing mutations in the B-box (B tRNA—SEQ ID No 9) or in both the A and B box (A2B; A2B tRNA—SEQ ID No 10) were assayed using our in vitro amber suppression assay described above. WT tRNA under control of the H1 promoter (H1-tRNA) was used as a positive control, and in addition one sample was transfected only with the GFPY40 reporter to illustrate background amber suppression in the absence of tRNA. The transfected cells were exposed to 2 mM lys-azide nnAA and cells incubated for three days. GFP expression was examined by flow cytometry and mean fluorescence intensity determined.
# Two copies of the WT, B, or A2B tRNA were cloned in tandem to generate a single vector containing two copies of WT, B, or A2B tRNA. To assess the effect of increased gene doses by these constructs, cells expressing WTpylRS were transiently transfected with the tRNA constructs and the GFPY40 reporter construct and GFP expression assayed after two days.
# The activity of each construct was assessed by transient transfection into cells stably expressing WT pylRS with the GFPY40 reporter as described above. For this experiment, 1 ug of a PCR product encoding each of the indicated constructs was used. In each case, cells were exposed to the lys azide nnAA for three days and GFP levels assayed by flow cytometry. Mean fluorescence intensities were determined for each sample and plotted (FIG. 8).
# [3] = 2 mM lys-azide nnAA, three days
Molecule,"GFP MFI in the presence of lys-azide, FIG. 6 ([1]; 2 mM lys azide)",increase in amber suppression dependent expression of GFP over WT tRNA (FIG. 6) ([1]; 2 mM lys azide),"GFP MFI in the absence of nnAA, FIG. 6 [1]","GFP MFI, FIG. 9 [2]","GFP mean fluorescence intensity (MFI), FIG. 5 [2, 3]","fold higher expression of GFP than the wt tRNA construct (FIG. 5) [2, 3]","capacity to support amber suppression relative to H1 WT tRNA (FIG. 4) ([2]; all tRNA variants under control of the H1 promoter, 1 ug construct + 1 ug GFPY40, lys azide 2 mM, 18 hours)","GFP MFI, single copy tRNA, FIG. 7 [2]","GFP MFI, tandem copies of tRNA, FIG. 7 [2]","GFP MFI, FIG. 10 ([2]; three days)","GFP MFI, FIG. 8 ([2]; three days)","GFP MFI, FIG. 11 [1]"
B1,"232,505",seven-fold,"42,104","89,869","410,131.1",four-fold,"support amber suppression, albeit at a lower level than the WT tRNA","67,489","110,941",329,,
B2,"33,781",,,"25,459","114,478.1",,,"18,002","20,617",,"117,626",
B3,,,,,,,,,,,,419
B4,,,,,,,,,,,,419
B5,"347,958",,"33,452","241,901","1,004,228.00",,,,,453,"828,503",453
B6,"313,386",,"36,217",,,,,,,,,
